Residue numbers refer to the chain shown, from its start. Read-outs that look alike come from different tables or passages of the source.
B1: WIF-1WD (WIF domain of human Wnt inhibitory factor 1, residues 35-178) (domain or fragment, UniProt Q9Y5W5 35-178, looked up)
chain: SLYLWIDAHQARVLIGFEEDILIVSEGKMAPFTHDFRKAQQRMPAIPVNIHSMNFTWQAAGQAEYFYEFLSLRSLDKGIMADPTVNVPLLGTVPHKASVVQVGFPCLGKQDGVAAFEVDVIVMNSEGNTILKTPQNAIFFKTCQ
B2: WIF-1_(WD-EGF-I) (human WIF-1 residues 35-210) (domain or fragment, UniProt Q9Y5W5 35-210, looked up)
chain: SLYLWIDAHQARVLIGFEEDILIVSEGKMAPFTHDFRKAQQRMPAIPVNIHSMNFTWQAAGQAEYFYEFLSLRSLDKGIMADPTVNVPLLGTVPHKASVVQVGFPCLGKQDGVAAFEVDVIVMNSEGNTILKTPQNAIFFKTCQQAECPGGCRNGGFCNERRICECPDGFHGPHCE
B3: WIF-1_(WD-EGF-I) Met77Trp (domain or fragment, human, UniProt Q9Y5W5 35-210, looked up)
chain: B2 chain with M43W
B4: WIF-1ΔC (human WIF-1 residues 35-346) (domain or fragment, UniProt Q9Y5W5 35-346, looked up)
chain: SLYLWIDAHQARVLIGFEEDILIVSEGKMAPFTHDFRKAQQRMPAIPVNIHSMNFTWQAAGQAEYFYEFLSLRSLDKGIMADPTVNVPLLGTVPHKASVVQVGFPCLGKQDGVAAFEVDVIVMNSEGNTILKTPQNAIFFKTCQQAECPGGCRNGGFCNERRICECPDGFHGPHCEKALCTPRCMNGGLCVTPGFCICPPGFYGVNCDKANCSTTCFNGGTCFYPGKCICPPGLEGEQCEISKCPQPCRNGGKCIGKSKCKCSKGYQGDLCSKPVCEPGCGAHGTCHEPNKCQCQEGWHGRHCNKRYEASLI
B5: WIF-1ΔC Met77Trp (domain or fragment, human, UniProt Q9Y5W5 35-346, looked up)
chain: B4 chain with M43W
B6: WIF-1_(WD-EGFs I-III) (human WIF-1 residues 35-274) (domain or fragment, UniProt Q9Y5W5 35-274, looked up)
chain: SLYLWIDAHQARVLIGFEEDILIVSEGKMAPFTHDFRKAQQRMPAIPVNIHSMNFTWQAAGQAEYFYEFLSLRSLDKGIMADPTVNVPLLGTVPHKASVVQVGFPCLGKQDGVAAFEVDVIVMNSEGNTILKTPQNAIFFKTCQQAECPGGCRNGGFCNERRICECPDGFHGPHCEKALCTPRCMNGGLCVTPGFCICPPGFYGVNCDKANCSTTCFNGGTCFYPGKCICPPGLEGEQCE
B7: WIF-1_(EGFs I-V) (human WIF-1 residues 178-346) (domain or fragment, UniProt Q9Y5W5 178-346, looked up)
chain: QQAECPGGCRNGGFCNERRICECPDGFHGPHCEKALCTPRCMNGGLCVTPGFCICPPGFYGVNCDKANCSTTCFNGGTCFYPGKCICPPGLEGEQCEISKCPQPCRNGGKCIGKSKCKCSKGYQGDLCSKPVCEPGCGAHGTCHEPNKCQCQEGWHGRHCNKRYEASLI

Columns and labels:
Experiment in all cases: SPR
[1] = target: T1, mouse Wnt3a (mouse, UniProt P27467 19-352)
[2] = target: T1, mouse Wnt3a; remark: listed apart in the source
[3] = target: T1, mouse Wnt3a; remark: listed apart in the source
[4] = target: T1, mouse Wnt3a; remark: listed apart in the source
[5] = target: T1, mouse Wnt3a; remark: listed apart in the source

T1 sequence (P27467 19-352): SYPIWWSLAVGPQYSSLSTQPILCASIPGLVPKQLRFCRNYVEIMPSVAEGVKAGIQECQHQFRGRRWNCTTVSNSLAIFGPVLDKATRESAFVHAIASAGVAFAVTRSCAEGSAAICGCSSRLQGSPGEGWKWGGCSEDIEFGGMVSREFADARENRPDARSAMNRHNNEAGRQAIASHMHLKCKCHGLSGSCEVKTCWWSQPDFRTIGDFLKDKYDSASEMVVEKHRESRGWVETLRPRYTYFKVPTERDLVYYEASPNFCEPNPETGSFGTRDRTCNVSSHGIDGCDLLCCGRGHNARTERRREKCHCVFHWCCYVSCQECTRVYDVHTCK

Row | Binder | Kd [1] | further results
1 | B1 | 3.4 µM | –
2 | B2 | 5.6 µM | Kd [2]: 16.9 µM; Kd [3]: 16.8 µM; Kd [4]: 15.9 µM; Kd [5]: 9.86 µM
3 | B3 | 2.86 µM | –
4 | B4 | 0.0216 µM | –
5 | B5 | 0.217 µM | –
6 | B6 | 3.21 µM | –
7 | B7 | 0.9 µM | –
